Data: a protein production outcome set (Wang et al. 2014)

Experiment: label from the status in PepcDB records
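Also: failed if final PepcDB status was selected cloned or expressed and not failed if soluble or beyond.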

## MLEKIFNSLCSLVPKRYNMKEETNIVGIYNEHYLLSEKSNLVGALKLEGISYLSLDDKEIAQKFNERILALNEIVDGVHFKIVVKRRKIFMHHEYTQEEISNPFALEVINLWEQGVEDVYQNFYYLIFETKNDSIKGYLERFKKKITTNELENIQENNRQDEVKYQENYFIGFDNFNLLDKSKILYSIINNVKNMLSGLFVEKIDANSLLNFYAEYINGVPSEYTFARGRLHDGMINSDVHFKKDFFTHIHNGKEIFKRFISIKTYDIDKIVSTALSSVLHLSLEFDVILNIDNIPKAKAEKRIETKRKRANKSIRVEIDELNDMIKTDRVLMQEISLNILVHAKTKTDLDSACIEITNLLKQKGIVSTQESIGMLPMFFSFFPNRNRLNFRKRLLSSQNIASLIILEKQNCGFSRNSWGDRHLTIFRNQDKSPYLFNFHAYEAKRKNDMVSGHTIIFGGTGAGKTTLIEFLITNCFKYEDLSILALDRNNGMRVMTEFLDGQYNDSNDFYINPFSLKDTSANCTFLVSWLAFMLNIDEDTKDEKEKKTLSALSKTIRVCYNNITKQGGAIFKLRDFKDTLEIDYLDSKDILEKESSKDLYKHSTDCLDFAKKLSVIDMDALSSSKKDFNLAVLYLFYKVMNRAKLENKPFYIFIDEAKSVIENPIMLAKIKDTLAQARKLNGVLTLAFQDINQLDGVEGAKSIIENAAQVILYPTNNFEKLESYGILLSPIEKSFLNKTPLNARQVLVKNLLTQSSVFLEINLEKLNSTSKKFLRAYNSSASSVFELETLKKDNPKDYKEIYLTKE
  protein production: failed

## SSKPPPKPVKPGEGGQVKVFRALYTFEPRTPDELYFEEGDIIYITDMSDTNWWKGTSKGRTGLIPSNYVAEQAESIDNPLHEAAKRGNLSWLRECLDNRVGVNGLDKAGSTALYWACHGGHKDIVEMLFTQPNIELNQQNKLGDTALHAAAWKGYADIVQLFLAKGARTDLRNIEKKLAFDMATNAACASLLKKKQGTDAVRTLSNAEDYLDDEDSD
  protein production: failed

## MQWPPPWRRSPLVSATPPPGPTRGLLCPRRVSEAGDSSTEGARTGHSHYVTPAESAMEGRSQPLPSLRPASPTNAPAHGRGSDCTAKEPPLANVCRQNYGAAQDPVELAGRRSASHVTGSSLGKAEVACGRRWRWAELLADTSWSPAGRATEMKVKMLSRNPDNYVRETKLDLQRVPRNYDPALHPFEVPREYVRALNATKLERVFAKPFLASLDGHRDGVNCLAKHPEKLATVLSGACDGEVRIWNLTQRNCIRTIQAHEGFVRGICTRFCGTSFFTVGDDKTVKQWKMDGPGYGDEEEPLHTILGKTVYTGIDHHWKEAVFATCGQQVDIWDEQRTNPICSMTWGFDSISSVKFNPIETFLLGSCASDRNIVLYDMRQATPLKKVILDMRTNTICWNPMEAFIFTAANEDYNLYTFDMRALDTPVMVHMDHVSAVLDVDYSPTGKEFVSASFDKSIRIFPVDKSRSREVYHTKRMQHVICVKWTSDSKYIMCGSDEMNIRLWKANASEKLGVLTSREKAAKDYNQKLKEKFQHYPHIKRIARHRHLPKSIYSQIQEQRIMKEARRRKEVNRIKHSKPGSVPLVSEKKKHVVAVVK
  protein production: failed

## MDHQLSQHDIFISQDGQLQLTVAVDTETVWLTQAEICVLFDRERSVITKHINNVFKEGELERDSVCAIFARTADDGKTYQTQYFNLDVIISVGYRVKSKRGVQFRQWATNTLKQHLLQGYTLNQQRLVQRGIEFNQALALLSKTLTNQALINPDGQAVVNVIAEYARSWSLLQGYDEQSLTEITHKQQQMQPLALDEVLAAIAALKTNLIAKGEATDLFAQLRGNGLASSIATIEQGFGGEWFYPNVASRAAHLLYFIIKNHPFADGNKRTGSFLFLWYLQQNQHLLAKPVSEQINDTTLVALALLVAESLPDQKELMIRLIEHFILLKDSELEHHHHHH
  protein production: not failed

## MSVKAGDVFKYERRFTEEEVFEFANITGDKGRHHVEYDENGRLMVHGLLTASIGTKVGEELHYIARELVSEFIRPVFTGDTITCELTLTNVEQMEGYKKVSIESVYRNQHEKTVLVGTSYGIIRGLEHHHHHH
  protein production: not failed

## MGDSAPARIDTLEIKLLFAGDIMTHGPQIESAKCEGGRVYDFSSSFDTLASRIGAADLAIGNLETTFAGAPYSGYPTFSSPDAMGEALKNAGFDVLTTANNHTADKGKKGIIRTLDMLDSLGIAHTGSYRDIFDRDKMTPLILEVKGVRIAILAYTYGTNGMPVPAPTWVDPIDTVMIKKDLLRADSLGADYRIVQIHWGIEYRKEPDSEQLELARKLHRYGADAIIGSHPHVVQGSQWLKSDSKTSFVIYSMGNFISNQRKPAATRGGMLLSLTLRKVGDRITTHPDYQYVFVNKRTPQGKRVYRLLPVDPFSSDTLPSLPPEEQRDYKEFAKYYQMIPLVLIEREDNRIRNRLQVSQRAFLEHHHHHH
  protein production: failed

## MFSIIIPIYNSENYLRYSIESVLNQSIGFKENIELILIDDGSVDSSPQICESFKNLYPNNIKIMKIENSGPSAARNCGLSNVSERSKFIGFLDSDDAFSQNALQSVYDFFCDSEHVNIAVLPVYYTGEKEGGHKLNNRFEKGTRVINILNDYKAIHFYIGGTFYRRHTLTSTVLFDESIKFWEDAIFFNQLLLKEKRYGAVAEGKYFYRKRKEQDSLVDRSWFNKKRYTYLLNECYMTLLMDSFNKYDIVLPYLQFLIVYHIKLFLYPNYRDVYKSVLDQQEQRVFVDDFIKVLKFIDPQFIKEQDMPMYYKEFMFHLLKENTEALENIKKERVLHSSCTVTSAKIKGLRLELTGHFINQYYEMKENDRIYIKYFKRLKKCKRKELKKTIEVWGYKLRDFRYAGFVVEIPIWAFAFDFVLKTPNDSLELNHVNIFKSLLTRVFKKRLEHHHHHH
  protein production: not failed

## MRGCNKETGEFLGPSRSQQRRTALEVLVLSEKLAALTPAQLAKLPIPERLLPHITETKRITSHIARKRQLAFLAKQMRREDDTTLEAIREKLNASGIQAQREVATLHRTEQWRKRLLEEGDSALTELLNQYPQADCGKLRQLLRNSKTEQARNKAPQAFRELYQVLHGLIITQ
  protein production: not failed

## MRIFKLSPDEEERFFDNLPRFLFYYLFLFTIFWFGLTQKSAEEIRESILSGNVSPDFWRSTLVVLLLLAITDAYLMRKGDTNWNTPGAALFMLFGFFIMLLVVMYVGRASILFVVSLFLIYINTLIKTKEELRKKNH
  protein production: failed

## MGKKYSMRRRIWQAVIEIIIGTCLLILLLLGLTFFLRQIGQISGSETIRLSLDSDNLTISDIERDMKHYPYDYIIFDNDTSKILGGHYVKSDVPSFVASKQSSHNITEGEITYTYSSNKHFSVVLRQNSMPEFTNHTLRSISYNQFTYLFFFLGEIILIIFSVYHLIREFSKNFQAVQKIALKMGEITTFPEQEESKIIEFDQVLNNLYSKSKELAFLIEAERHEKHDLSFQVAALSHDVKTPLTVLKGNIELLEMTEVNEQQADFIESMKNSLTVFDKYFNTMISYTKLLNDENDYKATISLEDFLIDLSVELEELSTTYQVDYQLVKKTDLTTFYGNTLALSRALINIFVNACQYAKEGEKIVSLSIYDDEKYLYFEIWNNGHPFSEQAKKNAGKLFFTEDTGRSGKHYGIGLSFAQGVALKHQGNLILSNPQKGGAEVILKIKK
  protein production: failed

## MSDHPGPGAVTPELFGVGGDWLAVTAGESGASVFRAADATRYAKCVPAADAAGLEAERDRIAWLSGQGVPGPRVLDWYAGDAGACLVTRAVPGVPADRVGADDLRTAWGAVADAVRRLHEVPVASCPFRRGLDSVVDAARDVVARGAVHPEFLPVEQRLVPPAELLARLTGELARRRDQEAADTVVCHGDLCLPNIVLHPETLEVSGFIDLGRLGAADRHADLALLLANARETWVDEERARFADAAFAERYGIAPDPERLRFYLHLDPLTWG
  protein production: failed

## MTISRNYDQEIKDTAGHKYAYNFDFDVMHPFMVRAFTPFFRPGNLLELGSFKGDFTSRLQEHFNDITCVEASEEAISHAQGRLKDGITYIHSRFEDAQLPRRYDNIVLTHVLEHIDDPVALLKRINDDWLAEGGRLFLVCPNANAVSRQIAVKMGIISHNSAVTEAEFAHGHRCTYALDTLERDASRAGLQVTYRSGIFFKALANFQWDQILQTDILSKEYLDGCYQLGQQYPDLCASIFLLCEKGINQ
  protein production: not failed

## MSDALSAIPAAVHRNLSDKLYEKRKNAALELENIVKNLTSSGDHDKISKVIEMLIKEFAKSPQANHRKGGLIGLAAVTVGLSTEAAQYLEQIVPPVINSFSDQDSRVRYYACEALYNIAKVVRGDFIIFFNKIFDALCKLSADSDANVQSAAHLLDRLVKDIVTESDQFSIEEFIPLLKERMNVLNPYVRQFLVGWITVLDSVPDIDMLGFLPDFLDGLFNMLSDSSHEIRQQADSALSEFLQEIKNSPSVDYGRMAEILVQRAASPDEFTRLTAITWINEFVKLGGDQLVRYYADILGAILPCISDKEEKIRVVARETNEELRSIHVEPSDGFDVGAILSVARRQLSSEFEATRIEALNWISTLLNKHRTEVLCFLNDIFDTLLKALSDSSDDVVLLVLEVHAGVAKDPQHFRQLIVFLVHNFRADNSLLERRGALIVRRMCVLLDAERVYRELSTILEGEDNLDFASTMVQALNLILLTSPELSKLRELLKGSLVNREGKELFVALYTSWCHSPMAIISLCLLAQAYQHASVVIQSLVEEDINVKFLVQLDKLIRLLETPIFTYLRLQLLEPGRYTWLLKTLYGLLMLLPQQSAAFKILRTRLKTVPTYSFSTGNQIGRATSGVPFSQYKHQNEDGDLEDDNINSSHQGINFAVRLQQFENVQNLHRGQARTRVNYSYHSSSSSTSKEVRRSEEQQQQQQQQQQQQQQQQRPPPSSTSSSVADNNRPPSRTSRKGPGQLQL
  protein production: not failed

## DKIAIIGSRRMSVYTKNCVFSLASMLKNAHLCVVSGGALGVDITASMAAMPNTIGIFANGLDQIYPRTNEKIIKQIYENALALSEYEDDYLPKNYDFLLRNRLVIALSKAVVVAQADIKSGSMQSAKLALELNKPLYVLPQRLGESTATNLLLKENKAKLICDFKEFVSEFASID
  protein production: failed

## RNPLFTCVISSIETTLSIPISGVHRDVIKYTPSADVELVFYGKSLTLKTPPIDATGSPTPATITRACVELKNIKNLHIDAGAFVKPKIPFIEIDEKPTGRIEEGKAMNNSKELYMKGYLLGKNLDAELLIVGESVPGGTTTALGVLLGLGYDAEGKVSSGSINNPHELKIKVVREGLKKAGINEKSSVFDVLNAVGDKMMPVVAGLAISFAERNKPVILAGGTQMSAVLAVIKEINKKVLDKNLIAIGTTEFVLNDKKGDLKGIVEQIGNVPVLASKFYFEKAKIEGLKNYCKGSVKEGVGAGGIAVYSIVNDL
  protein production: failed

## MNVRNNTKLITINALLLAIGVILHQITPILGLPMQPDFALTMLFIIIILNDNFKITMVSGTLMGIFTAMTTKFPGGQLPNVVDKIFTALIVFLFIALIKKSNILGRLSVEKRNNILIAIVLPLGTLVSGILFLGTAKIIVGLPASFSILFLTVVVPSIALNTVIGLVLYRIVEKSLRRASYSIRG
  protein production: failed

## MITIENSKFKAGIAERGAELQSLVNKADNYEYVWTGDKTFWNRHAPILFPSIGKSNQDQYRLGAKTYPMSQHGFARDYDFDVSDKSDSAVTFTQHQNAETLKKFPFEYTLAVTYMLTDGGLSVHYTVTNDDSKSMPFALGFHPAFNVGLKADGSFDDYDLTVEPLNSPLQRFGIGPVPFRNGDVEDIPGAEGNRLPLTHDLLDGGLVILANSEIAKATLASPHHDHSITLDISDFPYLTIWSPEHKKAPFIAVEPFDGLPDQAGEPTDWYTKLGNTTLSAGANKQLALKVELHLEHHHHHH
  protein production: failed

## MSHHVQREIRYNFEFDHRIRACFIGAGGHAYRNVYPALRYAPVELSGICDLDIGRAEKFAKLFGAGKAYTDHREMLEQEKPELVFLVTAYHPDGRVQATDLALDALASGAHVWMEKPTAASLEDIERLQAASAAAGRMVMTGLKKTFFPTIEKLRDLIGSPGFGRLTSINVRYPQSLPGQEDRADLVKMQSFLDHIYHPGAILHFLGGEIERAGYEWEALTGATITSLRFHSGAIGTLHLAAGQSGSSIFERVEIIGEGANAIVENGSRLTYFRKADLPSYGRAASFIQPDENAALFYEPEHSLGQLYNNNLFYLGYVPEILHLTDAILSGTPISRGTLEIAREIMKLFEFYRRTDAGVTTNL
  protein production: failed
